Data: patent US20180147232

Target: Flag-TSC2 (UniProt P49815)
Sequence (P49815 whole entry): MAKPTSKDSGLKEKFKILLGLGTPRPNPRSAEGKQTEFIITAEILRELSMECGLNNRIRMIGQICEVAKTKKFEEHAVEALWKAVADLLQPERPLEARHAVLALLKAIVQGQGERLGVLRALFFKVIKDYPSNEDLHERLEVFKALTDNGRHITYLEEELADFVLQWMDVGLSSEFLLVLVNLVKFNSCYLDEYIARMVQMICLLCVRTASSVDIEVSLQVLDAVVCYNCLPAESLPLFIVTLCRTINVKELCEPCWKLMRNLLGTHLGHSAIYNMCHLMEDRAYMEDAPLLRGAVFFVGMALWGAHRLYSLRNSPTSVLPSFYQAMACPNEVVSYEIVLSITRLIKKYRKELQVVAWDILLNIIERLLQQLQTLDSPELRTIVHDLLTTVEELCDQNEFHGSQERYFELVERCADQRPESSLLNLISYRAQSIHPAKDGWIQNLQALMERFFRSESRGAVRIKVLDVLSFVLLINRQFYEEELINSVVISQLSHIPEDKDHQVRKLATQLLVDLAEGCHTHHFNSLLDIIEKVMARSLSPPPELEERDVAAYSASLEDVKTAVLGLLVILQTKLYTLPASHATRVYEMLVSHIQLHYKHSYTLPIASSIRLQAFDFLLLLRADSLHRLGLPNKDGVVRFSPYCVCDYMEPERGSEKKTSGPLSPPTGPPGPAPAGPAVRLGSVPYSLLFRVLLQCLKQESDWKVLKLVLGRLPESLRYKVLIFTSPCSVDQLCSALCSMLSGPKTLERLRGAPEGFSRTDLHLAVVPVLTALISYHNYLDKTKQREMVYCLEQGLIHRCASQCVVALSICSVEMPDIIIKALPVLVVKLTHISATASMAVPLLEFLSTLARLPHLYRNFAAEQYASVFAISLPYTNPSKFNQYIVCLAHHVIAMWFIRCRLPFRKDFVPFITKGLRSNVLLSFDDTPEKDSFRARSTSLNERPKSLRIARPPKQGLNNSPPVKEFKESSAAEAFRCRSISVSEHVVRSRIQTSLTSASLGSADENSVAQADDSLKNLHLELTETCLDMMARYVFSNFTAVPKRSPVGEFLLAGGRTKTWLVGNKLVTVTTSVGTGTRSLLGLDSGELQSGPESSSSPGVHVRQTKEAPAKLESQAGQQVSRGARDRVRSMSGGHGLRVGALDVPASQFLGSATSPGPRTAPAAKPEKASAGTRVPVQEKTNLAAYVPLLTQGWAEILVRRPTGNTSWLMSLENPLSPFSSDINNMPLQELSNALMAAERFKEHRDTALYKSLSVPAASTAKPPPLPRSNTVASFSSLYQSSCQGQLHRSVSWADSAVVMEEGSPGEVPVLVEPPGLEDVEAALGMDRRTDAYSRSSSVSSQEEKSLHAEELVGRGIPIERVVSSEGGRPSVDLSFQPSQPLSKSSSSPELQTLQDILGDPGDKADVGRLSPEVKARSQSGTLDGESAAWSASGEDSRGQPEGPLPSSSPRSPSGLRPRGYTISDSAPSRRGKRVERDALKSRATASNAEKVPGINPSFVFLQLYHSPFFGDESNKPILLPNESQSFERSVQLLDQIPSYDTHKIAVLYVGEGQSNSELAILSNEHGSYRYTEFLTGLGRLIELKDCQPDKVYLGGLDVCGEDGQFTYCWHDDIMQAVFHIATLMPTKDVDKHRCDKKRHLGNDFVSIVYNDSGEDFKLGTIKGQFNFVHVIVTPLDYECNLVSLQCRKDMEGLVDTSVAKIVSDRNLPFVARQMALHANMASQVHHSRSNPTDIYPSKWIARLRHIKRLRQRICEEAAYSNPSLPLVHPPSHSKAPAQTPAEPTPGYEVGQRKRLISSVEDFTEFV

HA-SGK1
phosphorylation of RXRXX(S/T) motifs on co-expression: co-expression of SGK1 with TSC2 increased the phosphorylation of RXRXX(S/T) (SEQ ID NO: 1) motifs
